Tests used:
[1] = molecular target: T1, soluble human IL-3Rα 1-306-His I50A (human, UniProt P26951 19-307); experiment: Western blot, supernatants of 293FS cells
T1 construct: supernatant of 293FS cells; also called I50, soluble alanine
T1 sequence: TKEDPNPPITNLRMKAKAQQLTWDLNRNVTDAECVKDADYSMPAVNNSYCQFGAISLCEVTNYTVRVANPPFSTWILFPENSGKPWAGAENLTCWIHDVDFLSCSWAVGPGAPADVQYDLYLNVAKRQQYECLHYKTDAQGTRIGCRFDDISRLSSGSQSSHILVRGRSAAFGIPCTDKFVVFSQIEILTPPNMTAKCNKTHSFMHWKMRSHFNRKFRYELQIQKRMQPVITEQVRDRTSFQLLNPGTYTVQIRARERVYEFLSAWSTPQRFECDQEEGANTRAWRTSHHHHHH

[2] = molecular target: T2, soluble human IL-3Rα 1-306-His S59A (human, UniProt P26951 19-307); experiment: Western blot, supernatants of 293FS cells
T2 construct: supernatant of 293FS cells; also called S59, soluble alanine
T2 sequence: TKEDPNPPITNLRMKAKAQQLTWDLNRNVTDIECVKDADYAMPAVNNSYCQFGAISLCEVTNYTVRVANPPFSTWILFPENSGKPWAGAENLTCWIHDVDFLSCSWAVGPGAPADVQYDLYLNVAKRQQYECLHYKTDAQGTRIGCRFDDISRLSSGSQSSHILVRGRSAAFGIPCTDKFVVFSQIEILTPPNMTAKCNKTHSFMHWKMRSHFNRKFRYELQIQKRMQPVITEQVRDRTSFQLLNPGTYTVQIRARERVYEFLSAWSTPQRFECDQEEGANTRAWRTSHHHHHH

[3] = molecular target: T3, soluble human IL-3Rα 1-306-His Y67A (human, UniProt P26951 19-307); experiment: Western blot, supernatants of 293FS cells
T3 construct: supernatant of 293FS cells; also called Y67, soluble alanine
T3 sequence: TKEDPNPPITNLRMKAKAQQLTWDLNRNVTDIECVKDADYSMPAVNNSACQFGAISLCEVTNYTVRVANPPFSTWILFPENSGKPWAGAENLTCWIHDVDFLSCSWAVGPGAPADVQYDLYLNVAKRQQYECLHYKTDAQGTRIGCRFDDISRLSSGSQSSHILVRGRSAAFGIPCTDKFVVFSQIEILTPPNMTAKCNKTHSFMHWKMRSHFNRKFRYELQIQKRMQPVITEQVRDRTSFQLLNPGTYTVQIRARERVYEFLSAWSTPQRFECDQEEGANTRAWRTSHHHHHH

[4] = molecular target: T4, soluble human IL-3Rα 1-306-His F70A (human, UniProt P26951 19-307); experiment: Western blot, supernatants of 293FS cells
T4 construct: supernatant of 293FS cells; also called F70, soluble alanine
T4 sequence: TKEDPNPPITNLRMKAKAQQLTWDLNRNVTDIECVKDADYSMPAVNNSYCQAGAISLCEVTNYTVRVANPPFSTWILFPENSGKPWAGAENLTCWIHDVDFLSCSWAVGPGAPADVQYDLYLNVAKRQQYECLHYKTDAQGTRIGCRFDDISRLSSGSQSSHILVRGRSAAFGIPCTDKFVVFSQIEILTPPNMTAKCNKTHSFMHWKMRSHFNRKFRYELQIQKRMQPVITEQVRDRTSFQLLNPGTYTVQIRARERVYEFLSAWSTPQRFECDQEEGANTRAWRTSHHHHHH

[5] = molecular target: T5, soluble human IL-3Rα 1-306-His P88A (human, UniProt P26951 19-307); experiment: Western blot, supernatants of 293FS cells
T5 construct: supernatant of 293FS cells; also called P88, soluble alanine
T5 sequence: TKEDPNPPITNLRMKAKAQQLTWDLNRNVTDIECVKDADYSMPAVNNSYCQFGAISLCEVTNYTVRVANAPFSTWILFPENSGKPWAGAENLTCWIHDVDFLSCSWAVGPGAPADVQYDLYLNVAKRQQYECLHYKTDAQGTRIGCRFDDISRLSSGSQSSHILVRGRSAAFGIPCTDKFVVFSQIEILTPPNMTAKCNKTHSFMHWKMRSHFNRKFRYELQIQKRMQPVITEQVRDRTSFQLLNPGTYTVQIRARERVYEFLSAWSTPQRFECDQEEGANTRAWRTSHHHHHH

[6] = molecular target: T6, soluble human IL-3Rα 1-306-His W93A (human, UniProt P26951 19-307); experiment: Western blot, supernatants of 293FS cells
T6 construct: supernatant of 293FS cells; also called W93, soluble alanine
T6 sequence: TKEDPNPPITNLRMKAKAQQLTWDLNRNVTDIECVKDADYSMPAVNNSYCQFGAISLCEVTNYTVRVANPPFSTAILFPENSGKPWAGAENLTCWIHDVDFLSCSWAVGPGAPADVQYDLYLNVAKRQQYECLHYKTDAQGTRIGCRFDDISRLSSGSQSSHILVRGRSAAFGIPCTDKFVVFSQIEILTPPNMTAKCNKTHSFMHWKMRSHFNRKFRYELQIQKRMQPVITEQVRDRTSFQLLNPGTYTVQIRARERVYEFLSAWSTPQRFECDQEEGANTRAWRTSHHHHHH

[7] = molecular target: T7, human IL-3Rα E51Q/S59A double mutant, full length (human, UniProt P26951 19-378); experiment: Western blot after SDS-PAGE of whole cell extracts
T7 chain: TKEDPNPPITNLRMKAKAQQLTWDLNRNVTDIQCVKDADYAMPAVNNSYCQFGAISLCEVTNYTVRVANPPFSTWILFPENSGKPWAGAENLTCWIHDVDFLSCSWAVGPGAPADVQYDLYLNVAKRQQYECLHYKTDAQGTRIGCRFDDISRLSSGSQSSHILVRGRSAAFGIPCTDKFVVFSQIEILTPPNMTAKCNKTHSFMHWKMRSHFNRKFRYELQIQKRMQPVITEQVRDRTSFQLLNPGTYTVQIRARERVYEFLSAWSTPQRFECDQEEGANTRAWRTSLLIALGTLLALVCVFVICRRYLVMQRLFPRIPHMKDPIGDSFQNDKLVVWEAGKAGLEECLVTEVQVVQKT

Measured: binding result

B1: antibody CSL362 (antibody, V domains shown)
VH: EVQLVQSGAEVKKPGESLKISCKGSGYSFTDYYMKWARQMPGKGLEWMGDIIPSNGATFYNQKFKGQVTISADKSISTTYLQWSSLKASDTAMYYCARSHLLRASWFAYWGQGTMVTVSS
VL: DIVMTQSPDSLAVSLGERATINCESSQSLLNSGNQKNYLTWYQQKPGQPPKPLIYWASTRESGVPDRFSGSGSGTDFTLTISSLQAEDVAVYYCQNDYSYPYTFGQGTKLEIKR
not listed: [7]
no binding: all other assays above

B2: monoclonal antibody 7G3 (antibody, V domains shown)
VH: EVQLQQSGPELVKPGASVKMSCKASGYTFTDYYMKWVKQSHGKSLEWIGDIIPSNGATFYNQKFKGKATLTVDRSSSTAYMHLNSLTSEDSAVYYCTRSHLLRASWFAYWGQGTLVTVSA
VL: DFVMTQSPSSLTVTAGEKVTMSCKSSQSLLNSGNQKNYLTWYLQKPGQPPKLLIYWASTRESGVPDRFTGSGSGTDFTLTISSVQAEDLAVYYCQNDYSYPYTFGGGTKLEIKR
notes: mouse monoclonal antibody (hybridoma ATCC HB-12009)
no binding: [7]
